Experimental findings from patent publication US20150268247A1 (UNIVERSITY OF ROCHESTER, published 2015) are described below.

What is called Kd is the free concentration of one partner at which half of the binding sites on the other are occupied at equilibrium, for simple one-to-one binding.

The chains are these.
B1: Cul5(N), human Cullin5 residues 2-384 with V341R and L345D mutations (post 3C cleavage) (other)
chain: GPMHMGGSTSNLLKNKGSLQFEDKWDFMRPIVLKLLRQESVTKQQWFDLFSDVHAVCLWDDKGPAKIHQALKEDILEFIKQAQARVLSHQDDTALLKAYIVEWRKFFTQCDILPKPFCQLEITLMGKQGSNKKSNVEDSIVRKLMLDTWNESIFSNIKNRLQDSAMKLVHAERLGEAFDSQLVIGVRESYVNLCSNPEDKLQIYRDNFEKAYLDSTERFYRTQAPSYLQQNGVQNYMKYADAKLKEEEKRALRYLETRRECNSVEALMECCVNALVTSFKETILAECQGMIKRNETEKLHLMFSLMDKVPNGIEPMLKDLEEHIISAGLADMVAAAETITTDSEKYREQLDTLFNRFSKLVKEAFQDDPRFLTARDKAYKAVVNDATIFK
notes: also called Cul5(2-384)
B2: CBFβ alone (human core-binding factor β subunit isoform 2) (other)
chain: MGHHHHHHLEVLFQGPPRVVPDQRSKFENEEFFRKLSRECEIKYTGFRDRPHEERQARFQNACRDGRSEIAFVATGTNLSLQFFPASWQGEQRQTPSREYVDLEREAGKVYLKAPMILNGVCVIWKGWIDLQRLDGMGCLEFDEERAQQEDALAQQAFEEARRRTREFEDRDRSHREEMEVRVSQLLAVTGKKTTRP

Like-named read-outs stand apart in the source and are kept apart here.

The target in assay [1] is T1, Vif/EloB/C/CBFβ quaternary complex (full-length HIV-1 HXB2 Vif(1-192) / ElonginB 1-118 / ElonginC 17 (HIV-1 HXB2; human, UniProt P69720 2-192; Q15370 2-118; P83940 18-112; Q13951 2-182).
The target in assay [2] is T2, VifC/EloB/C ternary complex (HIV-1 HXB2 Vif(95-192) / ElonginB 1-118 / ElonginC 17-112) (HIV-1 HXB2; human, UniProt P69720 95-192; Q15370 2-118; Q15369 18-112).
For assay [3], the target named is T1, Vif/EloB/C/CBFβ quaternary complex …. This is another data set of the same source.
Assay [4] has the same target. This is another data set of the same source.
Assay [5] has as its target T2, VifC/EloB/C ternary complex (HIV-1 HXB2 …). The source holds these as a separate data set.
Assay [6] shares this target. The source holds these as a separate data set.
Assay [7] has the same target. This is another data set of the same source.
For assay [8] the target is unchanged. This is another data set of the same source.
In assay [9] the target is T1, Vif/EloB/C/CBFβ quaternary complex …. The source holds these as a separate data set.
For assay [10] the target is unchanged. The source holds these as a separate data set.
Assay [11] has the same target. This is another data set of the same source.
The target in assay [12] is T2, VifC/EloB/C ternary complex (HIV-1 HXB2 …). In words: ITC at 30 °C, HEPES (ITC buffer A).
Assay [13] deals with T1, Vif/EloB/C/CBFβ quaternary complex …. As to the kind of experiment: ITC at 30 °C, HEPES (ITC buffer A).
Assay [14] concerns the target T2, VifC/EloB/C ternary complex (HIV-1 HXB2 …). As to the kind of experiment: ITC at 30 °C, phosphate (ITC buffer B).
Assay [15] has as its target T1, Vif/EloB/C/CBFβ quaternary complex …. As to the kind of experiment: ITC at 30 °C, phosphate (ITC buffer B).
Assay [16] deals with T2, VifC/EloB/C ternary complex (HIV-1 HXB2 …). As to the kind of experiment: ITC at 30 °C, difference of ΔH between ITC buffers A and B.
The target in assay [17] is T1, Vif/EloB/C/CBFβ quaternary complex …. The description is as above.
Assay [18] has as its target B2. In words: ITC at 303.15 K in ITC Buffer A, Cul5(N) titrated to CBFβ alone.
The target of assay [19] is T2, VifC/EloB/C ternary complex (HIV-1 HXB2 …). In words: ITC at 303 K, Cul5(N) in syringe, complex in cell, ITC buffer A.
In assay [20] the target is T1, Vif/EloB/C/CBFβ quaternary complex …. The description is as above.
For assay [21], the target named is T2, VifC/EloB/C ternary complex (HIV-1 HXB2 …). As to the kind of experiment: ITC at 303.15 K in ITC Buffer A, CBFβ titrated to VifC/EloB/C.

T1 sequence (P69720 2-192, tags left off, chain 1 of 3): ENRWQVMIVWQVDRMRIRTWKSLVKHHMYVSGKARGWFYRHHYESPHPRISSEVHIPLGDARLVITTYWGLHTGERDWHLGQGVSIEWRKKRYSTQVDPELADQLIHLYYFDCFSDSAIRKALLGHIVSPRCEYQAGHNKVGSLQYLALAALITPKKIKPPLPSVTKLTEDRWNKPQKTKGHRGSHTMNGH
T1 sequence (Q15370 2-118, tags left off, chain 2 of 3): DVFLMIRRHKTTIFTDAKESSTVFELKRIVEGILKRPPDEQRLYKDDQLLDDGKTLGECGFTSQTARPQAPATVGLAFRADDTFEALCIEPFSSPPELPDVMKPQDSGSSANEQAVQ
T1 sequence (P83940 18-112, tags left off, chain 3 of 3): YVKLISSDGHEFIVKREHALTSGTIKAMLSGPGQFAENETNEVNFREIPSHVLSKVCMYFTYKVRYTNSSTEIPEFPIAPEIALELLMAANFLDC
T2 sequence (P69720 95-192, tags left off, chain 1 of 3): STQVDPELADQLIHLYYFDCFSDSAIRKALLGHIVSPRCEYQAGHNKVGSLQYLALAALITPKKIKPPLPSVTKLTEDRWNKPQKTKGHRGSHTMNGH
T2 sequence (Q15370 2-118, tags left off, chain 2 of 3): as the sequence (Q15370 2-118, tags left off, chain 2 of 3) above
T2 sequence (Q15369 18-112, tags left off, chain 3 of 3): as the sequence (P83940 18-112, tags left off, chain 3 of 3) above

Turning to B1, the Kd worked out at 5 nM in assay [1] and 327 nM in assay [19]. Also, the N in assay [2] was 1.03; in assay [3], 1.01; in [4], 1.01; in assay [5] it was 1.03; in assay [6], 0.887; in [7] it was 0.952. In addition, the N in [8] turned out to be 0.948; in [10] it was 0.943; in assay [11], 1. For the same molecule, the ΔH was -5250 in [2]; -8350 in assay [3]; -8350 in [4]; -5250 in assay [5]; -2250 in [6]; -3750 in [7]. The ΔH in assay [8] is -6430; in assay [9], -3970; in assay [10] it was -6310; in assay [11], -10100; in [12], -5.2 kcal/mol; in assay [13], -9.2 kcal/mol. The ΔH was -4.4 kcal/mol in assay [14], -7.5 kcal/mol in [15], -5.2 kcal/mol in [19] and -8.8 kcal/mol in assay [20]. Moreover, the ΔS in assay [2] turned out to be 12.4; in assay [3], 11.2; in assay [4], 11.2; in assay [5], 12.4; in [6], 22.9; in assay [7] it was 17.4. Also, the ΔS in [8] is 7.96; in [9] it was 21.7; in assay [10], 23; in [11], 4.56. The “ΔΔH (HEPES against phosphate buffer)” value in assay [16] was 0.8 kcal/mol; in assay [17] it was 1.7 kcal/mol. For the same molecule, in assay [18], the binding result is recorded as “no binding”. The “-TΔS” value in assay [19] is -3.8 kcal/mol; in assay [20], -2.8 kcal/mol. For the same molecule, the ΔG in [19] is -9 kcal/mol; in assay [20], -11.5 kcal/mol.

Turning to B2, the binding result in assay [21] was “no binding”.
